Experimental data from the supplement of paper PMC12042874.
± gives the uncertainty stated by the source.

Test: amyloid nucleation score (Sup35N fusion, yeast selection) (log enrichment); library NNK3; higher = more nucleation; inactive = no reads after selection
Method in brief: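 DiMSum was used to calculate nucleation scores as log enrichment of output over input reads, centred on the mode score of non-aggregating sequences. Sequences with fewer than 100 input reads were not scored. Input and output came from Illumina sequencing of plasmid inserts in psi-negative yeast expressing peptides of 20 random codons fused to Sup35N, induced 24 hours with 100 μM copper sulfate and then grown 7 days at 30°C on medium lacking adenine and uracil.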

For TYMPAVIIYRVLQAMTAAHH, which amyloid nucleation score is on record?
The amyloid nucleation score was “inactive”.

Which amyloid nucleation score does the source give for TYRSTLSVSMAVRGSEMLD here?
The amyloid nucleation score was -0.085 ± 1.

With TYVGV as the substance, how does the amyloid nucleation score read?
Its amyloid nucleation score is “inactive”.

For TYVRIGVCGVLWFCTFFTQC, which amyloid nucleation score is on record?
The amyloid nucleation score was “inactive”.

With VACHRS as the substance, how does the amyloid nucleation score read?
Its amyloid nucleation score is “inactive”.

With VADRVSSK as the substance, how does the amyloid nucleation score read?
The amyloid nucleation score was “inactive”.

With VAEEHSVLSCQDADFCASSL as the substance, how does the amyloid nucleation score read?
Its amyloid nucleation score is “inactive”.

With VAFTLDGKARDKYRNGDHNK as the substance, how does the amyloid nucleation score read?
Its amyloid nucleation score is “inactive”.

Which amyloid nucleation score does the source give for VAFTLIVRFCS here?
The amyloid nucleation score was “inactive”.

With VAIGYIASVLK as the substance, how does the amyloid nucleation score read?
The amyloid nucleation score was “inactive”.

Which amyloid nucleation score does the source give for VALAVMQKLNMRYIYNPCFV here?
The amyloid nucleation score was “inactive”.

With VAMVSGIG as the substance, how does the amyloid nucleation score read?
The amyloid nucleation score was “inactive”.

Which amyloid nucleation score does the source give for VARISYLEIHNGETNFTYWF here?
Its amyloid nucleation score is 2.47 ± 0.062.

Which amyloid nucleation score does the source give for VARNGDLF here?
The amyloid nucleation score was “inactive”.

For VASVWLDIPMYLFSQLRTKT, which amyloid nucleation score is on record?
Its amyloid nucleation score is “inactive”.

With VATHTSASHLRS as the substance, how does the amyloid nucleation score read?
Its amyloid nucleation score is “inactive”.

Which amyloid nucleation score does the source give for VAYRTGSDG here?
Its amyloid nucleation score is “inactive”.

For VCAGNTDPWSQELIPYRKC, which amyloid nucleation score is on record?
The amyloid nucleation score was “inactive”.

Which amyloid nucleation score does the source give for VCASIGCRTGD here?
Its amyloid nucleation score is “inactive”.

Which amyloid nucleation score does the source give for VCDTM here?
Its amyloid nucleation score is “inactive”.

Which amyloid nucleation score does the source give for VCFFRVKRSYSNIFYTRRCR here?
The amyloid nucleation score was “inactive”.

With VCFNYDLFYMIRMGFEAVHI as the substance, how does the amyloid nucleation score read?
The amyloid nucleation score was “inactive”.

For VCGIYYVFLAGWEHKSRSKE, which amyloid nucleation score is on record?
Its amyloid nucleation score is 1.86 ± 0.089.

For VCGNMVSLVVHPFLFSYVCD, which amyloid nucleation score is on record?
The amyloid nucleation score was “inactive”.

Which amyloid nucleation score does the source give for VCIRTFLSLVSDCNACWSQL here?
Its amyloid nucleation score is “inactive”.

Which amyloid nucleation score does the source give for VCLLNWFWIYDQYVRQLTVV here?
Its amyloid nucleation score is “inactive”.

Which amyloid nucleation score does the source give for VCLWTVDLRIVTEGLGSHRG here?
The amyloid nucleation score was “inactive”.

With VCVKPLCFLAHMYGKC as the substance, how does the amyloid nucleation score read?
The amyloid nucleation score was “inactive”.

Which amyloid nucleation score does the source give for VCYDVCGRGWTCQY here?
Its amyloid nucleation score is -0.011 ± 0.42.

With VCYVKYSSLLCMNLGIRHRT as the substance, how does the amyloid nucleation score read?
The amyloid nucleation score was “inactive”.

With VDDIPYRFKTIKTTG as the substance, how does the amyloid nucleation score read?
Its amyloid nucleation score is “inactive”.

With VDFYLR as the substance, how does the amyloid nucleation score read?
The amyloid nucleation score was “inactive”.

Which amyloid nucleation score does the source give for VDHSLVWDHWTLRDIPCKTG here?
Its amyloid nucleation score is “inactive”.

Which amyloid nucleation score does the source give for VDLWYIFGPSPYATCFVLLV here?
Its amyloid nucleation score is “inactive”.

Which amyloid nucleation score does the source give for VDQHGFATKGPVLSKVIGHS here?
The amyloid nucleation score was “inactive”.

Which amyloid nucleation score does the source give for VDRDSWSVPFCALQKHRMQK here?
Its amyloid nucleation score is “inactive”.

For VDRVT, which amyloid nucleation score is on record?
Its amyloid nucleation score is “inactive”.

For VDTILSNKVYVRAPPKRGSK, which amyloid nucleation score is on record?
Its amyloid nucleation score is “inactive”.

For VEALILSVRKCVFGLPVPAL, which amyloid nucleation score is on record?
Its amyloid nucleation score is “inactive”.

For VECSIVLCII, which amyloid nucleation score is on record?
The amyloid nucleation score was 2.26 ± 0.051.

Which amyloid nucleation score does the source give for VEKCKLLFVTTHECLCHCSR here?
The amyloid nucleation score was “inactive”.

Which amyloid nucleation score does the source give for VETSCGRMHVLHLTGSGYSM here?
Its amyloid nucleation score is “inactive”.

With VFAFTKMESRFLLGLRVDEY as the substance, how does the amyloid nucleation score read?
Its amyloid nucleation score is 0.729 ± 0.15.

With VFETEKLSHFKCEVLDCQ as the substance, how does the amyloid nucleation score read?
Its amyloid nucleation score is “inactive”.

For VFFETNVMGQEWYGGHVKR, which amyloid nucleation score is on record?
The amyloid nucleation score was “inactive”.

For VFHRSSLNSSRAGWH, which amyloid nucleation score is on record?
The amyloid nucleation score was “inactive”.

For VFKFVLLSLYMFQWGNAFPM, which amyloid nucleation score is on record?
Its amyloid nucleation score is “inactive”.

With VFLKTVAKQFCLANVKRSH as the substance, how does the amyloid nucleation score read?
The amyloid nucleation score was “inactive”.

Which amyloid nucleation score does the source give for VFLNWRGMNHSLRAFNIESQ here?
Its amyloid nucleation score is “inactive”.

Which amyloid nucleation score does the source give for VFLPGRSIKWFLMAEKLRNH here?
Its amyloid nucleation score is “inactive”.

For VFLSCSCRWMVYGYNLTADC, which amyloid nucleation score is on record?
The amyloid nucleation score was “inactive”.

With VFLSWCAGSKGFSGVCRI as the substance, how does the amyloid nucleation score read?
The amyloid nucleation score was 0.6 ± 0.2.

For VFMCLANYMFPIPGNRHVPP, which amyloid nucleation score is on record?
The amyloid nucleation score was 0.053 ± 0.75.

With VFPPEMRVFPLFCW as the substance, how does the amyloid nucleation score read?
The amyloid nucleation score was “inactive”.

For VFSFDMLHRLG, which amyloid nucleation score is on record?
Its amyloid nucleation score is 1.53 ± 0.099.

For VFSFRTYNLYGEDNEQLLHW, which amyloid nucleation score is on record?
Its amyloid nucleation score is “inactive”.

Which amyloid nucleation score does the source give for VFVKLQHVGMSLGSFFPGSM here?
Its amyloid nucleation score is 0.85 ± 0.19.

For VFVSS, which amyloid nucleation score is on record?
The amyloid nucleation score was -0.36 ± 1.

For VFVVLLALSYGSDNTV, which amyloid nucleation score is on record?
The amyloid nucleation score was “inactive”.

With VFWLRYMNVSRANARGNAS as the substance, how does the amyloid nucleation score read?
The amyloid nucleation score was “inactive”.

With VGCIRGNGFVTQQATGY as the substance, how does the amyloid nucleation score read?
Its amyloid nucleation score is “inactive”.

With VGIALASIK as the substance, how does the amyloid nucleation score read?
Its amyloid nucleation score is “inactive”.

For VGILLFFYLTNVEQAVTFVR, which amyloid nucleation score is on record?
Its amyloid nucleation score is “inactive”.

Which amyloid nucleation score does the source give for VGNEECIYQIRFFLRLSGSL here?
The amyloid nucleation score was “inactive”.

Which amyloid nucleation score does the source give for VGNLCVLKGTTIMFGIMGST here?
Its amyloid nucleation score is 1.18 ± 0.14.

For VGQYGRFDTSQFCVFVVGE, which amyloid nucleation score is on record?
Its amyloid nucleation score is “inactive”.

For VGRAEWLC, which amyloid nucleation score is on record?
The amyloid nucleation score was “inactive”.

With VGSPWSYKG as the substance, how does the amyloid nucleation score read?
The amyloid nucleation score was “inactive”.

For VGTGVM, which amyloid nucleation score is on record?
The amyloid nucleation score was “inactive”.

For VGTLRSAGIIMVSRELVMRV, which amyloid nucleation score is on record?
The amyloid nucleation score was “inactive”.

With VGWTVGYKW as the substance, how does the amyloid nucleation score read?
Its amyloid nucleation score is “inactive”.

Which amyloid nucleation score does the source give for VGYAKYPSNRVRIYRGFENV here?
The amyloid nucleation score was “inactive”.

Which amyloid nucleation score does the source give for VHFKCLRRCVGVIDRCINRH here?
Its amyloid nucleation score is “inactive”.

For VHFSVMVGKKDDPSLF, which amyloid nucleation score is on record?
The amyloid nucleation score was “inactive”.

Which amyloid nucleation score does the source give for VHLSWFSIIVRVDEGDWARR here?
Its amyloid nucleation score is -0.839 ± 1.5.

With VHLYADPDVMQYNRWDVVGY as the substance, how does the amyloid nucleation score read?
The amyloid nucleation score was “inactive”.

For VHLYEFRLNAACSCPSDRYG, which amyloid nucleation score is on record?
The amyloid nucleation score was “inactive”.

Which amyloid nucleation score does the source give for VHVRWVVRMVSWKYLAGILL here?
The amyloid nucleation score was “inactive”.

With VHVVLIIWTSHQLTCADLAY as the substance, how does the amyloid nucleation score read?
The amyloid nucleation score was “inactive”.

Which amyloid nucleation score does the source give for VHYIVNYRGRILV here?
Its amyloid nucleation score is “inactive”.

Which amyloid nucleation score does the source give for VHYYEE here?
The amyloid nucleation score was “inactive”.

With VIGQGLCWGFSTVDIP as the substance, how does the amyloid nucleation score read?
Its amyloid nucleation score is “inactive”.

Which amyloid nucleation score does the source give for VIGVNIWSCL here?
The amyloid nucleation score was 1.29 ± 0.1.

Which amyloid nucleation score does the source give for VILQMT here?
Its amyloid nucleation score is “inactive”.

Which amyloid nucleation score does the source give for VIMFVAIGWLLR here?
The amyloid nucleation score was “inactive”.

For VINRHVCGRVGMLTGFDGLT, which amyloid nucleation score is on record?
The amyloid nucleation score was “inactive”.

Which amyloid nucleation score does the source give for VINRST here?
Its amyloid nucleation score is 0.979 ± 0.11.

Which amyloid nucleation score does the source give for VIQGLYSSFMHVYG here?
Its amyloid nucleation score is “inactive”.

Which amyloid nucleation score does the source give for VIRRHWR here?
Its amyloid nucleation score is “inactive”.

With VISCCP as the substance, how does the amyloid nucleation score read?
Its amyloid nucleation score is “inactive”.

With VISISRFDGWQRAHVKVRVS as the substance, how does the amyloid nucleation score read?
Its amyloid nucleation score is “inactive”.

With VISVGLVIKRLYSMWYLAAG as the substance, how does the amyloid nucleation score read?
Its amyloid nucleation score is “inactive”.

For VITADLRSMIWDVPKNVY, which amyloid nucleation score is on record?
Its amyloid nucleation score is 0.92 ± 0.16.

Which amyloid nucleation score does the source give for VITVSVTHNNANFFQMTDGM here?
Its amyloid nucleation score is 2.88 ± 0.055.

Which amyloid nucleation score does the source give for VIVICFIFLMNVIPIQACWT here?
The amyloid nucleation score was “inactive”.

Which amyloid nucleation score does the source give for VIVRDSLISVSSTIRDFVCG here?
Its amyloid nucleation score is “inactive”.

For VIWGTPQFSFAEVREFDLVH, which amyloid nucleation score is on record?
Its amyloid nucleation score is “inactive”.

For VKGQWR, which amyloid nucleation score is on record?
Its amyloid nucleation score is “inactive”.

For VKHQVDCLIVVI, which amyloid nucleation score is on record?
Its amyloid nucleation score is “inactive”.

With VKKSYWAERGFFGA as the substance, how does the amyloid nucleation score read?
The amyloid nucleation score was “inactive”.

With VKMTGDVVTLHLRDLINCWA as the substance, how does the amyloid nucleation score read?
Its amyloid nucleation score is “inactive”.

With VKTYFTSLRFVISMGWLNNQ as the substance, how does the amyloid nucleation score read?
The amyloid nucleation score was “inactive”.

Which amyloid nucleation score does the source give for VKVLWFSDCSSLYCHSVDGP here?
The amyloid nucleation score was “inactive”.

Which amyloid nucleation score does the source give for VKVMMT here?
Its amyloid nucleation score is “inactive”.

Which amyloid nucleation score does the source give for VLADCWRSGIHWIGHTYLIN here?
The amyloid nucleation score was “inactive”.

For VLASSKGICPMPSTSEFSFH, which amyloid nucleation score is on record?
Its amyloid nucleation score is “inactive”.

Which amyloid nucleation score does the source give for VLCCANKYSFTNQQSGSASE here?
The amyloid nucleation score was 0.952 ± 0.1.

For VLDLTKYSFLTI, which amyloid nucleation score is on record?
Its amyloid nucleation score is “inactive”.

For VLFAKRLDLTCVFLFIGRVW, which amyloid nucleation score is on record?
Its amyloid nucleation score is “inactive”.

Which amyloid nucleation score does the source give for VLFFSAYWMFQKVGVLVPSK here?
The amyloid nucleation score was “inactive”.

For VLFMMMERHSRSRSRGSLQ, which amyloid nucleation score is on record?
Its amyloid nucleation score is 0.858 ± 0.23.

Which amyloid nucleation score does the source give for VLGCFVVKGSKFVDLPEFHR here?
Its amyloid nucleation score is 1.3 ± 0.085.

With VLGDSNFF as the substance, how does the amyloid nucleation score read?
Its amyloid nucleation score is “inactive”.

For VLGMNEPCSFW, which amyloid nucleation score is on record?
Its amyloid nucleation score is “inactive”.

For VLIMYKSGRYVIGSLVLMCL, which amyloid nucleation score is on record?
The amyloid nucleation score was “inactive”.

Which amyloid nucleation score does the source give for VLLFI here?
Its amyloid nucleation score is “inactive”.

For VLLLFWAPVNAGTVWYLWNR, which amyloid nucleation score is on record?
Its amyloid nucleation score is “inactive”.

With VLNFIMAWYNFRFVWGSMGV as the substance, how does the amyloid nucleation score read?
Its amyloid nucleation score is “inactive”.

Which amyloid nucleation score does the source give for VLRKARVVIRSYSMEVRFRS here?
The amyloid nucleation score was “inactive”.
